Experimental data reported in patent publication US20210388110A1 (published 2021).

Molecular target: T1, soluble human CD3ε chain (human, UniProt P07766 23-126, limits assumed)
T1 construct: the text says soluble human CD3ε chain; also called human CD3 epsilon chain
Assay: SPR (Biacore)

T1 sequence (P07766 23-126 limits assumed): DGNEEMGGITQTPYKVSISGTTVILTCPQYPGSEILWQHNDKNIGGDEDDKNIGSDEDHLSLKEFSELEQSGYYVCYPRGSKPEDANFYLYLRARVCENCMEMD

Row | Binder | Kd
1 | TR01H015-E22Hh/none-Hi-Kn010G3/TR01L005-k0 (antibody, human IgG1, kappa, L234A L235A, N297A, single-arm) heavy: QVQLVESGGGLVQPGRSLRLSCAASGFTFSNAWMHWVRQAPGKGLEWVAQIKGKSNNYATYYAESVKGRFTISRADSKNSIYLQMNSLKTEDTAVYYCRYVHYSASYGVDIWGQGTTVTVSSASTKGPSVFPLAPSSKSTSGGTAALGCLVKDYFPEPVTVSWNSGALTSGVHTFPAVLQSSGLYSLSSVVTVPSSSLGTQTYICNVNHKPSNTKVDKKVEPKSCDKTHTCPPCPAPEAAGGPSVFLFPPKPKDTLMISRTPEVTCVVVDVSHEDPEVKFNWYVDGVEVHNAKTKPREEQYASTYRVVSVLTVLHQDWLNGKEYKCKVSNKALPAPIEKTISKAKGQPREPQVYTLPPSRCELTKNQVSLSCAVKGFYPSDIAVEWESNGQPENNYKTTPPVLDSDGSFFLVSKLTVDKSRWQQGNVFSCSVMHEALHNHYTQKSLSLSPDYKDDDDK EPKSSDKTHTCPPCPAPELLGGPSVFLFPPKPKDTLMISRTPEVTCVVVDVSHEDPEVKFNWYVDGVEVHNAKTKPREEQYNSTYRVVSVLTVLHQDWLNGKEYKCKVSNKALPAPIEKTISKAKGQPREPQVCTLPPSRDELTKNQVSLWCLVKGFYPSDIAVEWESNGQPENNYKTTPPVLDSDGSFFLYSKLTVDKSRWQQGNVFSCSVMHEALHNRYTQKSLSLSP light: DIVMTQSPLSLPVTPGEPASISCRSSQSLVHSNRNTYLHWYLQKPGQSPQLLIYKVSNRFSGVPDRFSGSGSGTDFTLKISRVEAEDVGVYYCGQGTQVPYTFGQGTKVEIERTVAAPSVFIFPPSDEQLKSGTASVVCLLNNFYPREAKVQWKVDNALQSGNSQESVTEQDSKDSTYSLSSTLTLSKADYEKHKVYACEVTHQGLSSPVTKSFNRGEC | 65.3 nM
2 | TR01H019-E22Hh/none-Hi-Kn010G3/L0000-k0 (antibody, human IgG1, kappa, L234A L235A, N297A, single-arm) heavy: QVQLVESGGGLVQPGRSLRLSCAASGFTFSNAWMHWVRQAPGKGLEWVAQIKGKSQNYATYYAESVKGRFTISRADSKNSIYLQMNSLKTEDTAVYYCRYVHYSASYGVDIWGQGTTVTVSSASTKGPSVFPLAPSSKSTSGGTAALGCLVKDYFPEPVTVSWNSGALTSGVHTFPAVLQSSGLYSLSSVVTVPSSSLGTQTYICNVNHKPSNTKVDKKVEPKSCDKTHTCPPCPAPEAAGGPSVFLFPPKPKDTLMISRTPEVTCVVVDVSHEDPEVKFNWYVDGVEVHNAKTKPREEQYASTYRVVSVLTVLHQDWLNGKEYKCKVSNKALPAPIEKTISKAKGQPREPQVYTLPPSRCELTKNQVSLSCAVKGFYPSDIAVEWESNGQPENNYKTTPPVLDSDGSFFLVSKLTVDKSRWQQGNVFSCSVMHEALHNHYTQKSLSLSPDYKDDDDK EPKSSDKTHTCPPCPAPELLGGPSVFLFPPKPKDTLMISRTPEVTCVVVDVSHEDPEVKFNWYVDGVEVHNAKTKPREEQYNSTYRVVSVLTVLHQDWLNGKEYKCKVSNKALPAPIEKTISKAKGQPREPQVCTLPPSRDELTKNQVSLWCLVKGFYPSDIAVEWESNGQPENNYKTTPPVLDSDGSFFLYSKLTVDKSRWQQGNVFSCSVMHEALHNRYTQKSLSLSP light: DIVMTQSPLSLPVTPGEPASISCRSSQSLVHSNRNTYLHWYQQKPGQAPRLLIYKVSNRFSGVPDRFSGSGSGTDFTLKISRVEAEDVGVYYCGQGTQVPYTFGQGTKLEIKRTVAAPSVFIFPPSDEQLKSGTASVVCLLNNFYPREAKVQWKVDNALQSGNSQESVTEQDSKDSTYSLSSTLTLSKADYEKHKVYACEVTHQGLSSPVTKSFNRGEC | 68.5 nM
3 | TR01H018-E22Hh/none-Hi-Kn010G3/L0000-k0 (antibody, human IgG1, kappa, L234A L235A, N297A, single-arm) heavy: QVQLVESGGGLVQPGGSLRLSCAASGFTFSNAWMHWVRQAPGKGLEWVAQIKGKSNNYATYYAESVKGRFTISRADSKNSIYLQMNSLKTEDTAVYYCRYVHYSASYGVDIWGQGTTVTVSSASTKGPSVFPLAPSSKSTSGGTAALGCLVKDYFPEPVTVSWNSGALTSGVHTFPAVLQSSGLYSLSSVVTVPSSSLGTQTYICNVNHKPSNTKVDKKVEPKSCDKTHTCPPCPAPEAAGGPSVFLFPPKPKDTLMISRTPEVTCVVVDVSHEDPEVKFNWYVDGVEVHNAKTKPREEQYASTYRVVSVLTVLHQDWLNGKEYKCKVSNKALPAPIEKTISKAKGQPREPQVYTLPPSRCELTKNQVSLSCAVKGFYPSDIAVEWESNGQPENNYKTTPPVLDSDGSFFLVSKLTVDKSRWQQGNVFSCSVMHEALHNHYTQKSLSLSPDYKDDDDK EPKSSDKTHTCPPCPAPELLGGPSVFLFPPKPKDTLMISRTPEVTCVVVDVSHEDPEVKFNWYVDGVEVHNAKTKPREEQYNSTYRVVSVLTVLHQDWLNGKEYKCKVSNKALPAPIEKTISKAKGQPREPQVCTLPPSRDELTKNQVSLWCLVKGFYPSDIAVEWESNGQPENNYKTTPPVLDSDGSFFLYSKLTVDKSRWQQGNVFSCSVMHEALHNRYTQKSLSLSP light: DIVMTQSPLSLPVTPGEPASISCRSSQSLVHSNRNTYLHWYQQKPGQAPRLLIYKVSNRFSGVPDRFSGSGSGTDFTLKISRVEAEDVGVYYCGQGTQVPYTFGQGTKLEIKRTVAAPSVFIFPPSDEQLKSGTASVVCLLNNFYPREAKVQWKVDNALQSGNSQESVTEQDSKDSTYSLSSTLTLSKADYEKHKVYACEVTHQGLSSPVTKSFNRGEC | 69.3 nM

Continued by falling Kd, values first:

Row | Kd | Binder
4 | 64.8 nM | TR01H020-E22Hh/none-Hi-Kn010G3/L0000-k0 (antibody, human IgG1, kappa, L234A L235A, N297A, single-arm) heavy: QVQLVESGGGLVQPGRSLRLSCAASGFTFSNAWMHWVRQAPGKGLEWVAQIKGKSNNYATYYAPSVKGRFTISRADSKNSIYLQMNSLKTEDTAVYYCRYVHYSASYGVDIWGQGTTVTVSSASTKGPSVFPLAPSSKSTSGGTAALGCLVKDYFPEPVTVSWNSGALTSGVHTFPAVLQSSGLYSLSSVVTVPSSSLGTQTYICNVNHKPSNTKVDKKVEPKSCDKTHTCPPCPAPEAAGGPSVFLFPPKPKDTLMISRTPEVTCVVVDVSHEDPEVKFNWYVDGVEVHNAKTKPREEQYASTYRVVSVLTVLHQDWLNGKEYKCKVSNKALPAPIEKTISKAKGQPREPQVYTLPPSRCELTKNQVSLSCAVKGFYPSDIAVEWESNGQPENNYKTTPPVLDSDGSFFLVSKLTVDKSRWQQGNVFSCSVMHEALHNHYTQKSLSLSPDYKDDDDK EPKSSDKTHTCPPCPAPELLGGPSVFLFPPKPKDTLMISRTPEVTCVVVDVSHEDPEVKFNWYVDGVEVHNAKTKPREEQYNSTYRVVSVLTVLHQDWLNGKEYKCKVSNKALPAPIEKTISKAKGQPREPQVCTLPPSRDELTKNQVSLWCLVKGFYPSDIAVEWESNGQPENNYKTTPPVLDSDGSFFLYSKLTVDKSRWQQGNVFSCSVMHEALHNRYTQKSLSLSP light: DIVMTQSPLSLPVTPGEPASISCRSSQSLVHSNRNTYLHWYQQKPGQAPRLLIYKVSNRFSGVPDRFSGSGSGTDFTLKISRVEAEDVGVYYCGQGTQVPYTFGQGTKLEIKRTVAAPSVFIFPPSDEQLKSGTASVVCLLNNFYPREAKVQWKVDNALQSGNSQESVTEQDSKDSTYSLSSTLTLSKADYEKHKVYACEVTHQGLSSPVTKSFNRGEC
5 | 36.9 nM | TR01H016-E22Hh/none-Hi-Kn010G3/L0000-k0 (antibody, human IgG1, kappa, L234A L235A, N297A, single-arm) heavy: QVQLVESGGGLVQPGRSLRLSCAASGFTFSNAWMHWVRQAPGKGLEWVAQIKGKSNNYATYYAESVKGRFTISRADSKNSIYLQMNSLKTEDTAVYYCRYVHYSYSYGVDIWGQGTTVTVSSASTKGPSVFPLAPSSKSTSGGTAALGCLVKDYFPEPVTVSWNSGALTSGVHTFPAVLQSSGLYSLSSVVTVPSSSLGTQTYICNVNHKPSNTKVDKKVEPKSCDKTHTCPPCPAPEAAGGPSVFLFPPKPKDTLMISRTPEVTCVVVDVSHEDPEVKFNWYVDGVEVHNAKTKPREEQYASTYRVVSVLTVLHQDWLNGKEYKCKVSNKALPAPIEKTISKAKGQPREPQVYTLPPSRCELTKNQVSLSCAVKGFYPSDIAVEWESNGQPENNYKTTPPVLDSDGSFFLVSKLTVDKSRWQQGNVFSCSVMHEALHNHYTQKSLSLSPDYKDDDDK EPKSSDKTHTCPPCPAPELLGGPSVFLFPPKPKDTLMISRTPEVTCVVVDVSHEDPEVKFNWYVDGVEVHNAKTKPREEQYNSTYRVVSVLTVLHQDWLNGKEYKCKVSNKALPAPIEKTISKAKGQPREPQVCTLPPSRDELTKNQVSLWCLVKGFYPSDIAVEWESNGQPENNYKTTPPVLDSDGSFFLYSKLTVDKSRWQQGNVFSCSVMHEALHNRYTQKSLSLSP light: DIVMTQSPLSLPVTPGEPASISCRSSQSLVHSNRNTYLHWYQQKPGQAPRLLIYKVSNRFSGVPDRFSGSGSGTDFTLKISRVEAEDVGVYYCGQGTQVPYTFGQGTKLEIKRTVAAPSVFIFPPSDEQLKSGTASVVCLLNNFYPREAKVQWKVDNALQSGNSQESVTEQDSKDSTYSLSSTLTLSKADYEKHKVYACEVTHQGLSSPVTKSFNRGEC
6 | 35 nM | TR01H017-E22Hh/none-Hi-Kn010G3/L0000-k0 (antibody, human IgG1, kappa, L234A L235A, N297A, single-arm) heavy: QVQLVESGGGLVQPGGSLRLSCAASGFTFSNAWMHWVRQAPGKGLEWVAQIKAKSNNYATYYAESVKGRFTISRADSKNSIYLQMNSLKTEDTAVYYCRYVHYGAYYGVDIWGQGTTVTVSSASTKGPSVFPLAPSSKSTSGGTAALGCLVKDYFPEPVTVSWNSGALTSGVHTFPAVLQSSGLYSLSSVVTVPSSSLGTQTYICNVNHKPSNTKVDKKVEPKSCDKTHTCPPCPAPEAAGGPSVFLFPPKPKDTLMISRTPEVTCVVVDVSHEDPEVKFNWYVDGVEVHNAKTKPREEQYASTYRVVSVLTVLHQDWLNGKEYKCKVSNKALPAPIEKTISKAKGQPREPQVYTLPPSRCELTKNQVSLSCAVKGFYPSDIAVEWESNGQPENNYKTTPPVLDSDGSFFLVSKLTVDKSRWQQGNVFSCSVMHEALHNHYTQKSLSLSPDYKDDDDK EPKSSDKTHTCPPCPAPELLGGPSVFLFPPKPKDTLMISRTPEVTCVVVDVSHEDPEVKFNWYVDGVEVHNAKTKPREEQYNSTYRVVSVLTVLHQDWLNGKEYKCKVSNKALPAPIEKTISKAKGQPREPQVCTLPPSRDELTKNQVSLWCLVKGFYPSDIAVEWESNGQPENNYKTTPPVLDSDGSFFLYSKLTVDKSRWQQGNVFSCSVMHEALHNRYTQKSLSLSP light: DIVMTQSPLSLPVTPGEPASISCRSSQSLVHSNRNTYLHWYQQKPGQAPRLLIYKVSNRFSGVPDRFSGSGSGTDFTLKISRVEAEDVGVYYCGQGTQVPYTFGQGTKLEIKRTVAAPSVFIFPPSDEQLKSGTASVVCLLNNFYPREAKVQWKVDNALQSGNSQESVTEQDSKDSTYSLSSTLTLSKADYEKHKVYACEVTHQGLSSPVTKSFNRGEC
